The term stoichiometry N denotes the number of molecules, sites or subunits per partner or assembly. The Kd is the free concentration of one partner at which half of the binding sites on the other are occupied at equilibrium, for simple one-to-one binding.

B4: N-terminal domain of carcinoembryonic antigen (N-CEA) (domain or fragment)
chain: AKLTIESTPFNVAEGKEVLLLVHNLPQHLFGYSWYKGERVDGNRQIIGYVIGTQQATPGPAYSGREIIYPNASLLIQNIIQNDTGFYTLHVIKSDLVNEEATGQFRVYPEL
B10: N-CEA F29R (domain or fragment)
chain: AKLTIESTPFNVAEGKEVLLLVHNLPQHLRGYSWYKGERVDGNRQIIGYVIGTQQATPGPAYSGREIIYPNASLLIQNIIQNDTGFYTLHVIKSDLVNEEATGQFRVYPEL
B11: N-CEA Q44R (domain or fragment)
chain: AKLTIESTPFNVAEGKEVLLLVHNLPQHLFGYSWYKGERVDGNRRIIGYVIGTQQATPGPAYSGREIIYPNASLLIQNIIQNDTGFYTLHVIKSDLVNEEATGQFRVYPEL
B12: N-CEA S32N (domain or fragment)
chain: AKLTIESTPFNVAEGKEVLLLVHNLPQHLFGYNWYKGERVDGNRQIIGYVIGTQQATPGPAYSGREIIYPNASLLIQNIIQNDTGFYTLHVIKSDLVNEEATGQFRVYPEL

For data set [1], the target named is TMR labeled H27C N-CEA mutant (human) (UniProt P06731). Kind of data set: absorbance of tetramethylrhodamine dimers.
The data set “SEC” deals with the molecule itself. Nature of the data set: SEC. On the technique in general: Size exclusion chromatography separates by hydrodynamic size, large species first.
The data set “AUC” deals with the molecule itself. Kind of data set: AUC.
The data set “cross-linking” deals with the molecule itself. Kind of data set: cross-linking.
Data set [2] deals with B4. Kind of data set: SPR.
The target of the data set “N-CEA S32N” is B12. Kind of data set: SPR. Background: SPR reads the build-up and loss of mass on a sensor chip optically.
The data set “N-CEA F29R” has as its target B10. Kind of data set: SPR.
The target in another data set is T1, N-CEA V39A (human, UniProt P06731 34-144, V39A).
T1 sequence: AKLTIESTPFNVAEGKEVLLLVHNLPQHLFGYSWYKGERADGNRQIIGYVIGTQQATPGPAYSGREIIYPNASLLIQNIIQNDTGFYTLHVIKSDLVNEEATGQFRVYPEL
Kind of data set: SPR.

For the data set “N-CEA Q44R”, the target named is B11. Kind of data set: SPR.
Data set [3] addresses B4. Kind of data set: SPR. The source holds these as a separate data set.
Data set [4] has as its target B4. Kind of data set: SPR. The source holds these as a separate data set.

Read-outs that look alike come from different tables or passages of the source.

For the molecule “DraE monomer (DraE-dsc) (natural protein)”, the 518/555 absorbance ratio of TMR-labeled N-CEA after dilution with DraE in data set [1] is 0.48.

B1: N-CEA L95C (domain or fragment)
chain: AKLTIESTPFNVAEGKEVLLLVHNLPQHLFGYSWYKGERVDGNRQIIGYVIGTQQATPGPAYSGREIIYPNASLLIQNIIQNDTGFYTLHVIKSDCVNEEATGQFRVYPEL
B1: the “stoichiometry N” value in “SEC” is 2.

B2: N-CEA H89Q (domain or fragment)
chain: AKLTIESTPFNVAEGKEVLLLVHNLPQHLFGYSWYKGERVDGNRQIIGYVIGTQQATPGPAYSGREIIYPNASLLIQNIIQNDTGFYTLQVIKSDLVNEEATGQFRVYPEL
B2: in the data set “SEC”, the “stoichiometry N” value was found to be 2.

B3: N-CEA F29I (domain or fragment)
chain: AKLTIESTPFNVAEGKEVLLLVHNLPQHLIGYSWYKGERVDGNRQIIGYVIGTQQATPGPAYSGREIIYPNASLLIQNIIQNDTGFYTLHVIKSDLVNEEATGQFRVYPEL
On to B3, for which the “stoichiometry N” value in the data set “SEC” came to 2. For B4, the “stoichiometry N” value in “SEC” came out at 2. In addition, the dissociation constant Kd in “AUC” turned out to be 0.8 µM.

B5: N-CEA V39C mutant (domain or fragment)
chain: AKLTIESTPFNVAEGKEVLLLVHNLPQHLFGYSWYKGERCDGNRQIIGYVIGTQQATPGPAYSGREIIYPNASLLIQNIIQNDTGFYTLHVIKSDLVNEEATGQFRVYPEL
Consider B5, for which, in the data set “cross-linking”, the “stoichiometry N” value is 2.

B6: N-CEA Q76A (domain or fragment)
chain: AKLTIESTPFNVAEGKEVLLLVHNLPQHLFGYSWYKGERVDGNRQIIGYVIGTQQATPGPAYSGREIIYPNASLLIANIIQNDTGFYTLHVIKSDLVNEEATGQFRVYPEL
Turning to B6, the “stoichiometry N” value in the data set “SEC” came to 2.

B7: N-CEA D40A (domain or fragment)
chain: AKLTIESTPFNVAEGKEVLLLVHNLPQHLFGYSWYKGERVAGNRQIIGYVIGTQQATPGPAYSGREIIYPNASLLIQNIIQNDTGFYTLHVIKSDLVNEEATGQFRVYPEL
For the molecule B7, the “stoichiometry N” value in the data set “SEC” worked out at 2.

B8: N-CEA L95A (domain or fragment)
chain: AKLTIESTPFNVAEGKEVLLLVHNLPQHLFGYSWYKGERVDGNRQIIGYVIGTQQATPGPAYSGREIIYPNASLLIQNIIQNDTGFYTLHVIKSDAVNEEATGQFRVYPEL
In the case of B8, in the data set “SEC”, the “stoichiometry N” value was found to be 2.

B9: N-CEA L74A (domain or fragment)
chain: AKLTIESTPFNVAEGKEVLLLVHNLPQHLFGYSWYKGERVDGNRQIIGYVIGTQQATPGPAYSGREIIYPNASLAIQNIIQNDTGFYTLHVIKSDLVNEEATGQFRVYPEL
For B9, in “SEC”, the “stoichiometry N” value was determined as 2.

As to B10, in data set [2], the dissociation constant (Kd) was roughly 200 µM. Molecule B11 registered a dissociation constant Kd in data set [2] of roughly 130 µM. With B12, in data set [2], the Kd was roughly 200 µM.

B13: N-CEA I91A (domain or fragment)
chain: AKLTIESTPFNVAEGKEVLLLVHNLPQHLFGYSWYKGERVDGNRQIIGYVIGTQQATPGPAYSGREIIYPNASLLIQNIIQNDTGFYTLHVAKSDLVNEEATGQFRVYPEL
For B13, in data set [2], binding was characterised by a dissociation constant (Kd) of 55 ± 6 µM.

B14: N-terminal domain of CEACAM1 (N-CEACAM1) (domain or fragment)
chain: QLTTESMPFNVAEGKEVLLLVHNLPQQLFGYSWYKGERVDGNRQIVGYAIGTQQATPGPANSGRETIYPNASLLIQNVTQNDTGFYTLQVIKSDLVNEEATGQFHVYP
B14: the equilibrium dissociation constant (Kd) is roughly 100 µM with N-CEA S32N, roughly 100 µM with N-CEA F29R, roughly 100 µM with N-CEA V39A and 72 ± 9 µM in the data set with N-CEA Q44R.

B15: N-terminal domain of CEACAM6 (N-CEACAM6) (domain or fragment)
chain: KLTIESTPFNVAEGKEVLLLAHNLPQNRIGYSWYKGERVDGNSLIVGYVIGTQQATPGPAYSGRETIYPNASLLIQNVTQNDTGFYTLQVIKSDLVNEEATGQFHVYP
In the case of B15, the dissociation constant (Kd) is roughly 100 µM in data set [3]; roughly 200 µM in the data set with N-CEA S32N; roughly 200 µM in the data set with N-CEA F29R; 28 ± 3 µM in the data set with N-CEA Q44R; 65 ± 7 µM in [4].

The values are drawn from paper PMC2628979 (Molecular microbiology, 2007).
